Laboratory results from publication PMC11733250, “Interplay of p23 with FKBP51 and their chaperone complex in regulating tau aggregation” (Nature Communications, 2025).

B2: FKBP51 (natural protein, UniProt Q13451 1-457, looked up)
chain: MTTDEGAKNNEESPTATVAEQGEDITSKKDRGVLKIVKRVGNGEETPMIGDKVYVHYKGKLSNGKKFDSSHDRNEPFVFSLGKGQVIKAWDIGVATMKKGEICHLLCKPEYAYGSAGSLPKIPSNATLFFEIELLDFKGEDLFEDGGIIRRTKRKGEGYSNPNEGATVEIHLEGRCGGRMFDCRDVAFTVGEGEDHDIPIGIDKALEKMQREEQCILYLGPRYGFGEAGKPKFGIEPNAELIYEVTLKSFEKAKESWEMDTKEKLEQAAIVKEKGTVYFKGGKYMQAVIQYGKIVSWLEMEYGLSEKESKASESFLLAAFLNLAMCYLKLREYTKAVECCDKALGLDSANEKGLYRRGEAQLLMNEFESAKGDFEKVLEVNPQNKAARLQISMCQKKAKEHNERDRRIYANMFKKFAEQDAKEEANKAMGKKTSEGVTNEKGTDSQAMEEEKPEGHV
notes: FKBP51, 51 kDa, with the FK1, FK2 and TPR domains; all three domains and residues 426-457 are spoken of, which fits the whole 457-residue protein; Used unlabeled or with 13C-methyl (Leu, Val) labels; also called free FKBP51; LV-labeled FKBP51; source: grown in LB or M9 medium, IPTG-induced; purified (His-trap, HRV 3C cut of the His-tag, size exclusion chromatography)

Legend:
Conditions in all cases: both partners purified
[1] = target: T1, 441-residue human 2N4R tau (human, UniProt P10636-8 1-441); test: NMR titration; 1H-15N HSQC of 15N-labeled tau (20 or 30 µM); unlabeled p23 or p23 (1-119) added up to ten-fold molar excess; 50 mM NaP, 10 mM NaCl, 1 mM DTT, pH 6.8, 278 K
T1 construct: tau, human, 2N4R isoform, printed length 441 residues; Used unlabeled or 15N-labeled; source: grown in LB or M9 medium, IPTG-induced; purified (boiling, ammonium sulfate, Mono S ion exchange, reverse phase HPLC), lyophilized

[2] = target: T1, 441-residue human 2N4R tau; test: cross-linking; p23:FKBP51:tau 1:1:1 (25 µM each), 1 mM DSS, 30 min at 25 °C; SDS-PAGE band above 220 kDa cut out, trypsin digest, mass spectrometry (pLink)
[3] = target: B2; test: NMR titration; 1H-15N TROSY HSQC of deuterated 15N-labeled p23 (WT 40 µM, 1-119 25 µM, R88A R93A 40 µM); unlabeled FKBP51 added at equimolar to three-fold or five-fold molar excess; 25 mM HEPES, 10 mM KCl, 5 mM MgCl2, 1 mM DTT, pH 7.2, 303 K

T1 sequence (P10636 other isoform, or with tags, fused parts or gaps): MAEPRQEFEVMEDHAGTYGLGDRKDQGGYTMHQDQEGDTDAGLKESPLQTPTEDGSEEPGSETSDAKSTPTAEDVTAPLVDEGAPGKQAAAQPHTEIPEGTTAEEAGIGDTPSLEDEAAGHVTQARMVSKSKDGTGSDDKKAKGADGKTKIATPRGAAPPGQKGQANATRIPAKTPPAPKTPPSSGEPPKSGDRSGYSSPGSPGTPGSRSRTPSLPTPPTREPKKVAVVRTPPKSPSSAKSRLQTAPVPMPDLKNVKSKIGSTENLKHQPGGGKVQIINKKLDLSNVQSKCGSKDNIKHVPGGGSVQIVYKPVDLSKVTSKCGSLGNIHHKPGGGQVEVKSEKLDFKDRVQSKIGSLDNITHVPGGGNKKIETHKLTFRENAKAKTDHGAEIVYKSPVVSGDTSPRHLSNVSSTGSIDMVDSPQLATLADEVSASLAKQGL

B1: p23 wild-type (human co-chaperone p23, 160 amino acids) (natural protein, UniProt Q15185 1-160, looked up)
chain: MQPASAKWYDRRDYVFIEFCVEDSKDVNVNFEKSKLTFSCLGGSDNFKHLNEIDLFHCIDPNDSKHKRTDRSILCCLRKGESGQSWPRLTKERAKLNWLSVDFNNWKDWEDDSDEDMSNFDRFSEMMNNMGGDEDVDLPEVDGADDDSQDSDDEKMPDLE
notes: p23, human, 160 amino acids: folded domain (residues 1-110) and disordered C-terminal tail (residues 111-160); Used unlabeled, 15N-labeled or deuterated/15N-labeled; also called p23 WT; full-length p23; source: grown in LB or M9 medium, IPTG-induced; purified (His-trap, thrombin cut of the His-tag, size exclusion chromatography)
binding result [1]: binds

B2
binding result [2]: binds

B3: truncated p23 (1-119) (domain or fragment, human, UniProt Q15185 1-119, looked up)
chain: MQPASAKWYDRRDYVFIEFCVEDSKDVNVNFEKSKLTFSCLGGSDNFKHLNEIDLFHCIDPNDSKHKRTDRSILCCLRKGESGQSWPRLTKERAKLNWLSVDFNNWKDWEDDSDEDMSN
notes: p23, human, residues 1-119; the terminal 41 residues are deleted; Made by site-directed mutagenesis; also called truncated (1–119) mutant p23; C-terminal deletion mutant of p23; source: grown in LB or M9 medium, IPTG-induced; purified (His-trap, thrombin cut of the His-tag, size exclusion chromatography)
binding result [3]: binds
